# Assay results reported in article PMC9482650, “Quantitative fragmentomics allow affinity mapping of interactomes” (Nature Communications, 2022).
# Assays:
# Experiment in all cases: holdup assay
# Parameters in all cases: key: below the threshold = too weak to quantify, mostly under pKd 3.1 to 4
# TJP1_3, Q07157 = target: TJP1_3, Q07157
# TJP1_2, Q07157 = target: TJP1_2, Q07157
# IL16_1, Q14005 = target: IL16_1, Q14005
# LDB3, O75112 = target: LDB3, O75112
# SCRIB_1, Q14160 = target: SCRIB_1, Q14160
# Chain of SCRIB_1, Q14160 (Q14160 718-814): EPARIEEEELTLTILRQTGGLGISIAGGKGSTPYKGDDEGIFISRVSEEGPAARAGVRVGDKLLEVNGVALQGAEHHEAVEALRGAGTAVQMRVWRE
# NHERF4_4, Q86UT5 = target: NHERF4_4, Q86UT5
# Chain of NHERF4_4, Q86UT5 (Q86UT5 464-550): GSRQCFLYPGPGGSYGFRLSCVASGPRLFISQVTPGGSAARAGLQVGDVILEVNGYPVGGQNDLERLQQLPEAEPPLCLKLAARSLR
# PDZRN4_1, Q6ZMN7 = target: PDZRN4_1, Q6ZMN7
# Chain of PDZRN4_1, Q6ZMN7 (Q6ZMN7 213-318): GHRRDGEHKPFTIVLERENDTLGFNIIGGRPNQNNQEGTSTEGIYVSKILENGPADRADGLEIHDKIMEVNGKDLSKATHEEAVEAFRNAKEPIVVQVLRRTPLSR
# GIPC2, Q8TF65 = target: GIPC2, Q8TF65
# Chain of GIPC2, Q8TF65 (Q8TF65 112-203): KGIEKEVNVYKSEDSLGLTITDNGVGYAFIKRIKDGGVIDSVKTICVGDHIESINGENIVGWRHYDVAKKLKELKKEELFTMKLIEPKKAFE
# GRASP, Q7Z6J2 = target: GRASP, Q7Z6J2
# Chain of GRASP, Q7Z6J2 (Q7Z6J2 96-193): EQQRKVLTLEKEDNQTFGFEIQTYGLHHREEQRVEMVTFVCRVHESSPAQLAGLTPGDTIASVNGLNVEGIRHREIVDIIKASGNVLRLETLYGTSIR
# LNX1_3, Q8TBB1 = target: LNX1_3, Q8TBB1
# Chain of LNX1_3, Q8TBB1 (Q8TBB1 500-596): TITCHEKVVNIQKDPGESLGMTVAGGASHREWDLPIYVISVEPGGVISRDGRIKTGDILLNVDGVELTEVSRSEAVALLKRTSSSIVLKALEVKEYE
# NHERF4_2, Q86UT5 = target: NHERF4_2, Q86UT5
# Chain of NHERF4_2, Q86UT5 (Q86UT5 220-308): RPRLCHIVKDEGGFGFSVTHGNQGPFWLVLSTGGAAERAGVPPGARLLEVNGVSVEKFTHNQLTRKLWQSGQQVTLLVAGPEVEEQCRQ
# RHPN1, Q8TCX5 = target: T1, RHPN1, Q8TCX5
# T1 sequence (Q8TCX5 508-602, limits assumed, looked up): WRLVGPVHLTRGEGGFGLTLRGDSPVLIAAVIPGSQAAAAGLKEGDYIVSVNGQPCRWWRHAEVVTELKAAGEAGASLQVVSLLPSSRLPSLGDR
# LNX2_3, Q8N448 = target: T2, LNX2_3, Q8N448
# T2 sequence (Q8N448 463-564, limits assumed, looked up): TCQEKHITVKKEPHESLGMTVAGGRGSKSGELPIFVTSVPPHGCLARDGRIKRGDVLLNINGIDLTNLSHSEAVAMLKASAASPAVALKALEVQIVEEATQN
# DLG5_1, Q8TDM6 = target: DLG5_1, Q8TDM6
# Chain of DLG5_1, Q8TDM6 (Q8TDM6 617-713): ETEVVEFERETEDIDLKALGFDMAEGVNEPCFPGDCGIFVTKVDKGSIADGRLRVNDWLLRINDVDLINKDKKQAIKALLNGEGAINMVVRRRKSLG
# LRRC7, Q96NW7 = target: T3, LRRC7, Q96NW7
# T3 sequence (Q96NW7 1440-1537, limits assumed, looked up): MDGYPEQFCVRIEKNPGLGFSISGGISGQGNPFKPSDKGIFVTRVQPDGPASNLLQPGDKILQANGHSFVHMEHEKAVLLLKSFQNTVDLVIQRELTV
# CARD11, Q9BXL7 = target: T4, CARD11, Q9BXL7
# T4 sequence (Q9BXL7 662-765, limits assumed, looked up): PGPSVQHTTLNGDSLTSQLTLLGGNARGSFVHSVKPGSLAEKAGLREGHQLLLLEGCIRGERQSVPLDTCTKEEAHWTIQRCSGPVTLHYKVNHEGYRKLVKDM
# GRIP1_7, Q9Y3R0 = target: T5, GRIP1_7, Q9Y3R0
# T5 sequence (Q9Y3R0 999-1096, limits assumed, looked up): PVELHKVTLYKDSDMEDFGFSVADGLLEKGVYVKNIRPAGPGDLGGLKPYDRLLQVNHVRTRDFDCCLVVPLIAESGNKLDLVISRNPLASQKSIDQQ
# MAGI2_3, Q86UL8 = target: MAGI2_3, Q86UL8
# Chain of MAGI2_3, Q86UL8 (Q86UL8 600-682): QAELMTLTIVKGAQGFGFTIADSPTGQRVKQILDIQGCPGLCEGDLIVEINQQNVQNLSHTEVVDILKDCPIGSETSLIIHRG
# DVL3, Q92997 = target: T6, DVL3, Q92997
# T6 sequence (Q92997 244-331, limits assumed, looked up): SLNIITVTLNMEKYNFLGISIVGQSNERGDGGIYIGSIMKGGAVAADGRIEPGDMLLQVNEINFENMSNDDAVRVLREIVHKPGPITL
# Inadl_10, Q8NI35 = target: Inadl_10, Q8NI35
# Chain of Inadl_10, Q8NI35 (Q8NI35 1673-1763): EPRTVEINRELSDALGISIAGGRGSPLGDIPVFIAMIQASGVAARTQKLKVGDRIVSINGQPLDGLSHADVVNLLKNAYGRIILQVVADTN
# MAGI1_2, Q96QZ7 = target: MAGI1_2, Q96QZ7
# Chain of MAGI1_2, Q96QZ7 (Q96QZ7 456-580): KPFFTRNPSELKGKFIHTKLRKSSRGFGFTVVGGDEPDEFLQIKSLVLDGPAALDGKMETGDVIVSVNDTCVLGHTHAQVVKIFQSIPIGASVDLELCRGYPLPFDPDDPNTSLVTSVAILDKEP
# GRIP2_5, Q9C0E4 = target: GRIP2_5, Q9C0E4
# Chain of GRIP2_5, Q9C0E4 (Q9C0E4 544-642): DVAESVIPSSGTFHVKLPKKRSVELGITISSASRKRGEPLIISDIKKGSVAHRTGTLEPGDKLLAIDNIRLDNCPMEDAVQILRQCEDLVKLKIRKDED
# NHERF4_1, Q86UT5-2 = target: NHERF4_1, Q86UT5-2
# Chain of NHERF4_1, Q86UT5-2 (Q86UT5 other isoform, or with tags, fused parts or gaps): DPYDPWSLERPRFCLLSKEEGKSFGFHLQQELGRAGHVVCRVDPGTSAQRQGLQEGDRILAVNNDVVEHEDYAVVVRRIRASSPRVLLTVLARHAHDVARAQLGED
# GRIP1_3, Q9Y3R0 = target: T7, GRIP1_3, Q9Y3R0
# T7 sequence (Q9Y3R0 247-346, limits assumed, looked up): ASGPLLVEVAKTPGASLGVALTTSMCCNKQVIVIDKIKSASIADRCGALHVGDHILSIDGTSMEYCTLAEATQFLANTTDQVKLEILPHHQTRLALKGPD
# HTRA3, P83110 = target: T8, HTRA3, P83110
# T8 sequence (P83110 354-453, limits assumed, looked up): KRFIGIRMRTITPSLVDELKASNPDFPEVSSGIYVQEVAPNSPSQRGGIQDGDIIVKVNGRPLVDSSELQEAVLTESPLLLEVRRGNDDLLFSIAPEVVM
# MPDZ_12, O75970 = target: T9, MPDZ_12, O75970
# T9 sequence (O75970 1857-1958, limits assumed, looked up): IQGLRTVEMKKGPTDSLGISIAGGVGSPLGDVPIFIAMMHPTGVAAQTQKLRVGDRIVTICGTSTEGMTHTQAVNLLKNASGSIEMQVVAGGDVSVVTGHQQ
# ARHGEF11, O15085 = target: T10, ARHGEF11, O15085
# T10 sequence (O15085 42-136, limits assumed, looked up): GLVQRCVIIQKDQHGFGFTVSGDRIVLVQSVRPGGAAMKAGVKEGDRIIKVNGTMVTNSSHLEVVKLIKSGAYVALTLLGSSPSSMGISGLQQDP
# LNX1_1, Q8TBB1 = target: LNX1_1, Q8TBB1
# Chain of LNX1_1, Q8TBB1 (Q8TBB1 261-371): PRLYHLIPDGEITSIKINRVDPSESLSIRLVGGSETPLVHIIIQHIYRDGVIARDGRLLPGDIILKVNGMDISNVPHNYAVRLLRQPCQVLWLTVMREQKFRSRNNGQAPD
# [1] = plain residues with an end cap or a label only (N-terminal biotin on a linker: ado-ado)
# [2] = modified: phospho on S at position -3 from the C-terminal residue
# Chain of IL16_1, Q14005 (Q14005 210-306): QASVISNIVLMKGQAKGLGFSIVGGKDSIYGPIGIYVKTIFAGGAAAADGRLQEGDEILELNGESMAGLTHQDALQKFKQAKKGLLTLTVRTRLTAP
# Chain of TJP1_2, Q07157 (Q07157 181-274): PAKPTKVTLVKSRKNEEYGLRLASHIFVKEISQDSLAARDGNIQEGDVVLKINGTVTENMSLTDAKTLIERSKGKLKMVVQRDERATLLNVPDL
# Chain of LDB3, O75112 (O75112 1-94): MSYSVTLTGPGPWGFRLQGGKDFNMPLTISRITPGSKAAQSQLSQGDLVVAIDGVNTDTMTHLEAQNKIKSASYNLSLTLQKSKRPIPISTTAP
# Chain of TJP1_3, Q07157 (Q07157 416-512): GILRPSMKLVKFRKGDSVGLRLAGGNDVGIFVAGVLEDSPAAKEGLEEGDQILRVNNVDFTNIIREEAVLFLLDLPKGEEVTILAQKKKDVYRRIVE
binder,measurement,setting,value
"FEEEAEEEVA [TUBB4B, P68371]",pKd,"TJP1_3, Q07157; [1]",below the threshold
same,pKd,"TJP1_2, Q07157; [1]",below the threshold
same,pKd,"IL16_1, Q14005; [1]",below the threshold
same,pKd,"LDB3, O75112; [1]",below the threshold
same,pKd,"SCRIB_1, Q14160; [1]",below the threshold
same,pKd,"NHERF4_4, Q86UT5; [1]",below the threshold
same,pKd,"PDZRN4_1, Q6ZMN7; [1]",below the threshold
same,pKd,"GIPC2, Q8TF65; [1]",below the threshold
same,pKd,"GRASP, Q7Z6J2; [1]",below the threshold
same,pKd,"LNX1_3, Q8TBB1; [1]",below the threshold
same,pKd,"NHERF4_2, Q86UT5; [1]",below the threshold
same,pKd,"RHPN1, Q8TCX5; [1]",below the threshold
same,pKd,"LNX2_3, Q8N448; [1]",below the threshold
same,pKd,"DLG5_1, Q8TDM6; [1]",below the threshold
same,pKd,"LRRC7, Q96NW7; [1]",below the threshold
same,pKd,"CARD11, Q9BXL7; [1]",below the threshold
same,pKd,"GRIP1_7, Q9Y3R0; [1]",below the threshold
same,pKd,"MAGI2_3, Q86UL8; [1]",below the threshold
same,pKd,"DVL3, Q92997; [1]",below the threshold
same,pKd,"Inadl_10, Q8NI35; [1]",below the threshold
same,pKd,"MAGI1_2, Q96QZ7; [1]",below the threshold
same,pKd,"GRIP2_5, Q9C0E4; [1]",below the threshold
same,pKd,"NHERF4_1, Q86UT5-2; [1]",below the threshold
same,pKd,"GRIP1_3, Q9Y3R0; [1]",below the threshold
same,pKd,"HTRA3, P83110; [1]",below the threshold
same,pKd,"MPDZ_12, O75970; [1]",below the threshold
same,pKd,"ARHGEF11, O15085; [1]",below the threshold
same,pKd,"LNX1_1, Q8TBB1; [1]",below the threshold
"LETREPTNTL [GRIP1, Q9Y3R0]",pKd,"TJP1_3, Q07157; [1]",below the threshold
same,pKd,"TJP1_2, Q07157; [1]",below the threshold
same,pKd,"IL16_1, Q14005; [1]",below the threshold
same,pKd,"LDB3, O75112; [1]",below the threshold
same,pKd,"SCRIB_1, Q14160; [1]",below the threshold
same,pKd,"NHERF4_4, Q86UT5; [1]",below the threshold
same,pKd,"PDZRN4_1, Q6ZMN7; [1]",below the threshold
same,pKd,"GIPC2, Q8TF65; [1]",below the threshold
same,pKd,"GRASP, Q7Z6J2; [1]",below the threshold
same,pKd,"LNX1_3, Q8TBB1; [1]",below the threshold
same,pKd,"NHERF4_2, Q86UT5; [1]",below the threshold
same,pKd,"RHPN1, Q8TCX5; [1]",below the threshold
same,pKd,"LNX2_3, Q8N448; [1]",below the threshold
same,pKd,"DLG5_1, Q8TDM6; [1]",below the threshold
same,pKd,"LRRC7, Q96NW7; [1]",below the threshold
same,pKd,"CARD11, Q9BXL7; [1]",below the threshold
same,pKd,"GRIP1_7, Q9Y3R0; [1]",below the threshold
same,pKd,"MAGI2_3, Q86UL8; [1]",below the threshold
same,pKd,"DVL3, Q92997; [1]",below the threshold
same,pKd,"Inadl_10, Q8NI35; [1]",below the threshold
same,pKd,"MAGI1_2, Q96QZ7; [1]",below the threshold
same,pKd,"GRIP2_5, Q9C0E4; [1]",below the threshold
same,pKd,"NHERF4_1, Q86UT5-2; [1]",below the threshold
same,pKd,"GRIP1_3, Q9Y3R0; [1]",below the threshold
same,pKd,"HTRA3, P83110; [1]",below the threshold
same,pKd,"MPDZ_12, O75970; [1]",below the threshold
same,pKd,"ARHGEF11, O15085; [1]",below the threshold
same,pKd,"LNX1_1, Q8TBB1; [1]",below the threshold
"RRVRKLPSTTL [RPS6KA1_-3P, Q15418]",pKd,"TJP1_3, Q07157; [2]",below the threshold
same,pKd,"TJP1_2, Q07157; [2]",below the threshold
same,pKd,"IL16_1, Q14005; [2]",below the threshold
same,pKd,"LDB3, O75112; [2]",below the threshold
same,pKd,"SCRIB_1, Q14160; [2]",4.07
same,pKd,"NHERF4_4, Q86UT5; [2]",below the threshold
same,pKd,"PDZRN4_1, Q6ZMN7; [2]",3.98
same,pKd,"GIPC2, Q8TF65; [2]",below the threshold
same,pKd,"GRASP, Q7Z6J2; [2]",below the threshold
same,pKd,"LNX1_3, Q8TBB1; [2]",below the threshold
same,pKd,"NHERF4_2, Q86UT5; [2]",below the threshold
same,pKd,"RHPN1, Q8TCX5; [2]",4.34
same,pKd,"LNX2_3, Q8N448; [2]",below the threshold
same,pKd,"DLG5_1, Q8TDM6; [2]",below the threshold
same,pKd,"LRRC7, Q96NW7; [2]",below the threshold
same,pKd,"CARD11, Q9BXL7; [2]",below the threshold
same,pKd,"GRIP1_7, Q9Y3R0; [2]",3.68
same,pKd,"MAGI2_3, Q86UL8; [2]",below the threshold
same,pKd,"DVL3, Q92997; [2]",below the threshold
same,pKd,"Inadl_10, Q8NI35; [2]",below the threshold
same,pKd,"MAGI1_2, Q96QZ7; [2]",below the threshold
same,pKd,"GRIP2_5, Q9C0E4; [2]",below the threshold
same,pKd,"NHERF4_1, Q86UT5-2; [2]",below the threshold
same,pKd,"GRIP1_3, Q9Y3R0; [2]",below the threshold
same,pKd,"HTRA3, P83110; [2]",below the threshold
same,pKd,"MPDZ_12, O75970; [2]",below the threshold
same,pKd,"ARHGEF11, O15085; [2]",below the threshold
same,pKd,"LNX1_1, Q8TBB1; [2]",below the threshold
